Patent US20050288223A1

Molecular target: mouse LSR (lipolysis stimulated receptor) (mouse) (UniProt Q99KG5)
Test: cell-based or functional assay

UniProt Q99KG5, sequence (Q99KG5 36-594): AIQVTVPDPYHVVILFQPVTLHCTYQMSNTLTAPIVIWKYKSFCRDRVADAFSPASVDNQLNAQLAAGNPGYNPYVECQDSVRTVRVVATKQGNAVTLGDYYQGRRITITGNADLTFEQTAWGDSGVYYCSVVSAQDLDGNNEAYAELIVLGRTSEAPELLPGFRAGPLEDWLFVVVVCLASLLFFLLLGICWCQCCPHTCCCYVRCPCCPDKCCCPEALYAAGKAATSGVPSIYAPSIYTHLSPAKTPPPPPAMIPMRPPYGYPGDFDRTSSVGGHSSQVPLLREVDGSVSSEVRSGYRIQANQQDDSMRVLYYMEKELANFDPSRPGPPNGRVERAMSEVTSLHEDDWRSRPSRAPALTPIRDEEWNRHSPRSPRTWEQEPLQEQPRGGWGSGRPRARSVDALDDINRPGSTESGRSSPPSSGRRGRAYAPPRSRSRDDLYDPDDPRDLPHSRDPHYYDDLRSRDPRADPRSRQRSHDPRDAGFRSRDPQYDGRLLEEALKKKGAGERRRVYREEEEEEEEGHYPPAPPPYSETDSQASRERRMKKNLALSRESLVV

cell-associated 125I-leptin in BPRCL mouse liver cells after pre-incubation with increasing AdipoQ (AQ) or globular AdipoQ (AQ-GH): > 30%
Substance: 125I-mouse leptin (from UniProt P41160 22-167) (ligand)
